Data on 7 sequences can be found in the Immune Epitope Database (IEDB).

This experiment has as its target HLA-A*02:01. Nature of the experiment: IEDB peptide-MHC binding, purified MHC/competitive/radioactivity; ≥ and ≤ were set here for values at or beyond the usual limits of such assays. Conditions: source organism: Homo sapiens.
As usually defined, the IC50 is the concentration that gives 50% inhibition. Regarding KMVELVHFL, the IC50 was found to be 9.8 nM. The figure for LLGICLTSTV is 102 nM; for GIMIGVLVGV it is 36.8 nM. The figure for KVAELVHFLL is 55.6 nM; for KIWEELSML it is 167 nM. As to HLFIYATCLGL, the half-inhibitory concentration (IC50) was 54.3 nM.

Take ALCRWGLLLA: the half-inhibitory concentration (IC50) came to 139 nM.
